Biological target: T1, hiR2-FL-G563D-T7 (human, UniProt Q6PJF5 1-856)
T1 sequence: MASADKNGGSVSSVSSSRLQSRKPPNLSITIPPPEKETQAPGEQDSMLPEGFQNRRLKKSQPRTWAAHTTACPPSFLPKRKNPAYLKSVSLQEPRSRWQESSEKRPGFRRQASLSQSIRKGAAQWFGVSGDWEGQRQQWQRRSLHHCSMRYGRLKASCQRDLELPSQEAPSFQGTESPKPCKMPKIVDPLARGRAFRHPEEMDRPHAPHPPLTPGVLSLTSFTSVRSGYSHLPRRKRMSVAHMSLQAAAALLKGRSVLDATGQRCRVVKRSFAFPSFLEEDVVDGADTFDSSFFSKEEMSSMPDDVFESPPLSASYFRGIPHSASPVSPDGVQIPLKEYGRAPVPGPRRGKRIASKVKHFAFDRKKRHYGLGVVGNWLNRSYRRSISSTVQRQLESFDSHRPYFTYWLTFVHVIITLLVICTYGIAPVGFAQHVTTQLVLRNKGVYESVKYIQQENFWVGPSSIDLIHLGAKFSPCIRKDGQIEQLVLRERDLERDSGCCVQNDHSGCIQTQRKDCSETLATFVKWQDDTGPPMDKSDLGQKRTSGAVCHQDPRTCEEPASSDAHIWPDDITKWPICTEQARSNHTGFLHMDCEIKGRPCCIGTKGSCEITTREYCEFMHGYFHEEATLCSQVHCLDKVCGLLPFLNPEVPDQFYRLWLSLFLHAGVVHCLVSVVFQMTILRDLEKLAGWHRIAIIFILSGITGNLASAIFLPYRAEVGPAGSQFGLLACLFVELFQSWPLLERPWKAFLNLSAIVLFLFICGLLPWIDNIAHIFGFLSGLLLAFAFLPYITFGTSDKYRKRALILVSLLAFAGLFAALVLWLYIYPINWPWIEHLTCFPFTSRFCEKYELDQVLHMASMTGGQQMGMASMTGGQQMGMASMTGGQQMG
Test: FACS, MEF-DKO cells, 3 µg/ml
Procedure, shortened: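 Binding read by flow cytometry after a PE goat anti-mouse IgG F(ab′)2 secondary (1:100, on ice, 1 h, dark). Before that, immortalized MEF-DKO lines carrying single-mutant hiR2-FL-T7 constructs were incubated 1 h on ice with 3 μg/ml antibody or FACS buffer alone.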

B1: antibody 50 (antibody, V domains shown)
VH: QVQLQQSGAELVRPGASVKVSCKASGYAFSNYLIEWVKQRPGQGLEWIGVINPGSGFTKYNEKFKGKATLTADKSSSTAYMQLSSLTSEDSAVYFCARGLYRAMDYWGQGTSVTVSS
VL: DIQMTQSPASQSASLGESVTITCLASQTIGTWLAWYQQKPGKSPQLLIYAAASLADGVPSRFSGGGSGTKFSFKISSLQAEDFVNYYCQQIYSTPYTFGGGTKLEIK
notes: mouse IgG, kappa light chain; also called clone #50; purified antibody 50
loss of binding vs wild type: ≥ 30%
